According to US20090202550A1 (WILEX, published 2009):

B1: monoclonal antibody 7G1 (antibody, V domains shown)
VH: VQLQESGPELKKPGETVKISCKASGYTFTDYSMHWVKQAPGKGLKCMGWINTETTKSTYADDFKGRFALSLETSASTVYLQISNLKNEDTATYFCAREASYGEFDYWGQGTTVTVSS
VL: DIVLTQSPASLAVSLGQRATISCRASKSVSTSGYSYMHWYQQKPGQPPKLLIYLASNLESGVPARFSGSGSGTDFTLDIHPVEEEDAATYYCQHSRELPYTFGGGTKLELK

How the values were obtained:
[1] = biological target: FPRL1 on freshly isolated monocytes (human) (UniProt P25090); experiment: cell-based or functional assay
[2] = biological target: T1, soluble recombinant uPAR fragment D2D3 93-274 (human, UniProt Q03405 115-296); experiment: standard ELISA, coated purified protein, 7G1 as detecting antibody (FIG. 7A)
T1 construct: Purified from COS-7 supernatant on an anti-FLAG column; Mature-protein numbering

[3] = biological target: full length GPI-linked D1D2D3 (cell surface uPAR) (human) (UniProt Q03405); experiment: cell-based or functional assay
Sequence of full length GPI-linked D1D2D3 (cell surface uPAR) (human) (Q03405 23-305, one chain of several): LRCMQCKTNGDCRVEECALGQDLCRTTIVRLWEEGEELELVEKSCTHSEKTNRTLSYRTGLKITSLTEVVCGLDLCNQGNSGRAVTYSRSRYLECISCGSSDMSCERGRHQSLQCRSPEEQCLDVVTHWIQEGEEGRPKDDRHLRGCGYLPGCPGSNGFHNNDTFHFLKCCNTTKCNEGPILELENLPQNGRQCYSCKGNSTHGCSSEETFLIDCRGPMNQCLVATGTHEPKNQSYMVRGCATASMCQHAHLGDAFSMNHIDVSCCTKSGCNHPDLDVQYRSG

Sequence of FPRL1 on freshly isolated monocytes (human) (P25090 whole entry, the tested form may be a part): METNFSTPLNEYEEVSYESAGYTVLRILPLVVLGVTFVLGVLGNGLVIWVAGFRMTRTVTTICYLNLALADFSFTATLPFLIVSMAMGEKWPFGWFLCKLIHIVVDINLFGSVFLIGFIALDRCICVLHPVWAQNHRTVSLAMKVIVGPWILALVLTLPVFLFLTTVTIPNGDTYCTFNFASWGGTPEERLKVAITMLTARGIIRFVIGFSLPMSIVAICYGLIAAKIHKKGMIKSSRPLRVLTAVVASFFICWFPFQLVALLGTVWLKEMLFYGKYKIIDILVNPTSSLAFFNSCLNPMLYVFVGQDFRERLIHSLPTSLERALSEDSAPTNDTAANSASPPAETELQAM
T1 sequence (Q03405 other isoform, or with tags, fused parts or gaps limits assumed): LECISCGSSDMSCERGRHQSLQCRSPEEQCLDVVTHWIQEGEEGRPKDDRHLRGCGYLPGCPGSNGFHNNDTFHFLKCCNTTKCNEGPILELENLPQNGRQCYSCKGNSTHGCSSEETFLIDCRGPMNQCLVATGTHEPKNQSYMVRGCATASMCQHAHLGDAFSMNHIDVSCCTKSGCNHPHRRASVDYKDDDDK

| Molecule | % induced migration of monocytes, MMK-1 as chemoattractant, rabbit IgG control present [1] [%] | Migration fold increase, MMK-1 as chemoattractant, rabbit IgG control present [1] [fold] | fold lower recognition than of D2D3 84-274 [2] [fold] | % induced migration (ATF) of monocytes, antibody 50 µg/ml [3] [%] | % of inhibition (referred to MOPC treatment) [3] [%] | Migration fold increase [3] [fold] |
| --- | --- | --- | --- | --- | --- | --- |
| MMK-1, FPRL1 ligand (peptide) | 303 | 2.94 |  |  |  |  |
| B1 |  |  | ≥ 100 | 210 | 10 | 2.44 |
